According to patent US20250276077A1, “EPHA2 ANTIBODIES” (Immunome, Inc., priority 2022, published 2025):

What was measured:
[1] = biological target: Human EphA2 (ephrin receptor A2), native, in human tumor tissue (human) (UniProt P29317); assay: IF tumor tissue ESO, 1 ug/ml
[2] = biological target: Human EphA2 (ephrin receptor A2), native, in human tumor tissue (human) (UniProt P29317); assay: IF tumor tissue STS, 1 ug/ml
[3] = biological target: Human EphA2 (ephrin receptor A2), native, in human tumor tissue (human) (UniProt P29317); assay: IF tumor tissue STS, 3 ug/ml
[4] = biological target: Human EphA2 (ephrin receptor A2), native, in human tumor tissue (human) (UniProt P29317); assay: IF tumor tissue ESO, 30 ug/ml
[5] = biological target: Human EphA2 (ephrin receptor A2), native, in human tumor tissue (human) (UniProt P29317); assay: IF tumor tissue MELA, 3 ug/ml
[6] = biological target: Human EphA2 (ephrin receptor A2), native, in human tumor tissue (human) (UniProt P29317); assay: IF tumor tissue STS, 10 ug/ml
[7] = biological target: Human EphA2 (ephrin receptor A2), native, in human tumor tissue (human) (UniProt P29317); assay: IF tumor tissue URO, 30 ug/ml
[8] = biological target: Human EphA2 (ephrin receptor A2), native, in human tumor tissue (human) (UniProt P29317); assay: IF tumor tissue ESO, 0.1 ug/ml
[9] = biological target: Human EphA2 (ephrin receptor A2), native, in human tumor tissue (human) (UniProt P29317); assay: IF tumor tissue MELA, 10 ug/ml
[10] = biological target: Human EphA2 (ephrin receptor A2), native, in human tumor tissue (human) (UniProt P29317); assay: IF tumor tissue MELA, 30 ug/ml
[11] = biological target: Human EphA2 (ephrin receptor A2), native, in human tumor tissue (human) (UniProt P29317); assay: IF tumor tissue PANC, 10 ug/ml
[12] = biological target: Human EphA2 (ephrin receptor A2), native, in human tumor tissue (human) (UniProt P29317); assay: IF tumor tissue PANC, 30 ug/ml
[13] = biological target: Human EphA2 (ephrin receptor A2), native, in human tumor tissue (human) (UniProt P29317); assay: IF tumor tissue STS, 0.1 ug/ml
[14] = biological target: Human EphA2 (ephrin receptor A2), native, in human tumor tissue (human) (UniProt P29317); assay: IF tumor tissue URO, 0.1 ug/ml
[15] = biological target: Human EphA2 (ephrin receptor A2), native, in human tumor tissue (human) (UniProt P29317); assay: IF tumor tissue URO, 0.3 ug/ml
[16] = biological target: Human EphA2 (ephrin receptor A2), native, in human tumor tissue (human) (UniProt P29317); assay: IF tumor tissue PANC, 0.1 ug/ml
[17] = biological target: Human EphA2 (ephrin receptor A2), native, in human tumor tissue (human) (UniProt P29317); assay: IF tumor tissue Uterine, 1 ug/ml
[18] = biological target: Human EphA2 (ephrin receptor A2), native, in human tumor tissue (human) (UniProt P29317); assay: IF tumor tissue Uterine, 3 ug/ml
[19] = biological target: Human EphA2 (ephrin receptor A2), native, in human tumor tissue (human) (UniProt P29317); assay: IF tumor tissue NSCLC-SQ, 1 ug/ml
[20] = biological target: Human EphA2 (ephrin receptor A2), native, in human tumor tissue (human) (UniProt P29317); assay: IF tumor tissue Uterine, 30 ug/ml
[21] = biological target: Human EphA2 (ephrin receptor A2), native, in human tumor tissue (human) (UniProt P29317); assay: IF tumor tissue NSCLC-Adeno, 0.1 ug/ml
[22] = biological target: Human EphA2 (ephrin receptor A2), native, in human tumor tissue (human) (UniProt P29317); assay: IF tumor tissue NSCLC-Adeno, 0.3 ug/ml
[23] = biological target: Human EphA2 (ephrin receptor A2), native, in human tumor tissue (human) (UniProt P29317); assay: IF tumor tissue RCC-papillary, 10 ug/ml
[24] = biological target: Human EphA2 (ephrin receptor A2), native, in human tumor tissue (human) (UniProt P29317); assay: IF tumor tissue RCC-papillary, 30 ug/ml
[25] = biological target: Human EphA2 (ephrin receptor A2), native, in human tumor tissue (human) (UniProt P29317); assay: tissue staining of human cancer samples, 10 ug/ml

Sequence of Human EphA2 (ephrin receptor A2), native, in human tumor tissue (human) (P29317 25-976): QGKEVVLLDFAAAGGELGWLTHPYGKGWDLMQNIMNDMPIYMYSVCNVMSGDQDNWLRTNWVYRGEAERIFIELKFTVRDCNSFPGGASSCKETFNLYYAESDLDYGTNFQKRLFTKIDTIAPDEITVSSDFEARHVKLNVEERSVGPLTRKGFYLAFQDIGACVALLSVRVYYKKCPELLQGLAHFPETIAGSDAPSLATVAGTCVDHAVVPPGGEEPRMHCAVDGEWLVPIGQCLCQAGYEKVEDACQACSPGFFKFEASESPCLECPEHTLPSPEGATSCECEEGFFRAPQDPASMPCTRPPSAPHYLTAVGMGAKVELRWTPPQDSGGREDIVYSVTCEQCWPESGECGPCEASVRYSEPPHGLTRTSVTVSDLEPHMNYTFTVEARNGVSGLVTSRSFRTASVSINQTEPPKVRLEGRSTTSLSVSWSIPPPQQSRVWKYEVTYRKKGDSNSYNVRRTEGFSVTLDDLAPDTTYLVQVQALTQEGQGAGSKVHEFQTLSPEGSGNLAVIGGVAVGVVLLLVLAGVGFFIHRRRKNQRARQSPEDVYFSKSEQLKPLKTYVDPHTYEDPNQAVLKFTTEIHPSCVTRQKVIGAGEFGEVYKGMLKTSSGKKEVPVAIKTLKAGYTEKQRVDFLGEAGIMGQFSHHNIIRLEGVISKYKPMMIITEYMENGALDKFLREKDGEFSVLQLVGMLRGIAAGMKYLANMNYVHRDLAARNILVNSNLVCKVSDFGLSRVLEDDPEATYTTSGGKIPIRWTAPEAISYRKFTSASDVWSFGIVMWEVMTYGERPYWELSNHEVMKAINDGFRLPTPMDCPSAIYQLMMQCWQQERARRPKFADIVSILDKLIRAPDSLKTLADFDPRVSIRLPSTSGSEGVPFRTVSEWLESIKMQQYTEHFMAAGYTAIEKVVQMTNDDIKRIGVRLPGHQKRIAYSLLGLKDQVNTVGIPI

- tissue reactivity score [1]: 1
- tissue reactivity score [2]: 1
- tissue reactivity score [3]: 1
- tissue reactivity score [4]: 2
- tissue reactivity score [5]: 2
- tissue reactivity score [6]: 1
- tissue reactivity score [7]: 2
- tissue reactivity score [8]: 1
- tissue reactivity score [9]: 2
- tissue reactivity score [10]: 2
- tissue reactivity score [11]: 2
- tissue reactivity score [12]: 2
- tissue reactivity score [13]: 1
- tissue reactivity score [14]: 2
- tissue reactivity score [15]: 2
- tissue reactivity score [16]: 2
- tissue reactivity score [17]: 2
- tissue reactivity score [18]: 2
- tissue reactivity score [19]: 1
- tissue reactivity score [20]: 2
- tissue reactivity score [21]: 1
- tissue reactivity score [22]: 1
- tissue reactivity score [23]: 2
- tissue reactivity score [24]: 2
- Reactive (% of samples), Bladder Cancer (Urothelial) [25]: 86%
- Reactive (% of samples), Breast Cancer [25]: 79%
- Reactive (% of samples), Cervical Cancer (Squamous) [25]: 100%
- Reactive (% of samples), Esophageal Cancer (Squamous) [25]: 33%
- Reactive (% of samples), Head & Neck Cancer (Squamous) [25]: 87%
- Reactive (% of samples), Liver Cancer (HCC) [25]: 82%
- Reactive (% of samples), Non-Small Cell Lung Cancer [25]: 90%
- Reactive (% of samples), Ovarian Cancer [25]: 88%
- Reactive (% of samples), Renal Cancer [25]: 47%
- Reactive (% of samples), Soft Tissue Sarcoma [25]: 20%
- Reactive (% of samples), Stomach Cancer (Adenocarcinoma) [25]: 88%
- Reactive (% of samples), Testicular Cancer [25]: 56%
- Reactive (% of samples), Thyroid Cancer [25]: 31%
- Reactive (% of samples), Uterine Cancer [25]: 92%
Substance: AB-010018 (mouse monoclonal antibody precursor of DS-8895a; mouse IgG2a format)
